Source: the DeepSol protein solubility set

test: soluble on expression in E. coli; label from the status in PepcDB or PDB records

Row | Sequence | soluble on expression in E. coli
1 | MQFDNIDSALMALKNGETIIVVDDENRENEGDLVAVTEWMNDNTINFMAKEARGLICAPVSKDIAQRLDLVQMVDDNSDIFGTQFTVSIDHVDTTTGISAYERTLTAKKLIDPSSEAKDFNRPGHLFPLVAQDKGVLARNGHTEAAVDLAKLTGAKPAGVICEIMNDDGTMAKGQDLQKFKEKHQLKMITIDDLIEYRKKLEPEIEFKAKVKMPTDFGTFDMYGFKATYTDEEIVVLTKGAIRQHENVRLHSACLTGDIFHSQRCDCGAQLESSMKYINEHGGMIIYLPQEGRGIGLLNKLRAYELIEQGYDTVTANLALGFDEDLRDYHIAAQILKYFNIEHINLLSNNPSKFEGLKQYGIDIAERIEVIVPETVHNHDYMETKKIKMGHLIMAGDPLEHHHHHH | not soluble
2 | MQFEHLVQVNDRTLVDLPVLDRLQLWEGLVCRAREPQYFVVGLERFEILVDDGDRLHRRLYLPGLVVEDEVVLKAPDSAHYSIKPSAEVAGGSLDMTIEEPEPGSLFVRFAYCTRYLQPLGDELPYDAFVKQAYIAMDVETIATIRDRFGASAASGS | soluble
3 | MQGFQPPAEKDAIEFAKKHRKEFEKVGEQFFKDNFGLKVKATNVVGKDDGIEVYVHCDDHGIVFNASLPLYKDAIHQKGSMRSNDNGDDMSMMVGTVLSGFEYRAQKEKYDNLYKFFKENEKKYQYTGFTKEAINKTQNVGYKNEYFYITYSSRSLKEYRKYYEPLIQKNDKEFKEGMERARKEVNYAADTDAVATLFSTKKNFTNDNTEDDVIELSDKLYNLKNKPDKSTITIQIGKPTINTKKAFYDDNRPIEYGVHSKGELEHHHHHH | soluble
4 | MQHEEGNRQRPQGELLLRTVAMPRDTNPNQDIFGGWIMSQMDLGGGILAAEIARGRIVTVAVQEMNFIRPVKVGNVVCCYGHCVRVGNTSLQLKVEVWVKTLMNDCVTEDRHLVTEAVFTYVAIDAEGNPRPIPKEGNPILAGLLPTPLEHHHHHH | soluble
5 | MQIDKLRGRELDQLFKAILSLRDLEECYRFFDDLCTVNEIQALAQRLEVARMLREGYTYHKIETETGASTATISRVKRCLNYGNDAYAMALDRIKEEQQQEEKEANEAVTD | not soluble
6 | MQIMGLLEDKALVEAALFVAGRPLSVKELSKALGIKSLDYLEKLIELIASEYAERKSAIEVTKVAGDKWVMQVKQEYSQRVIHLMPKPELTAGELKTLALIAFLQPVEQSKIVKLRGSQAYEHIKRLLEMGLIYAEPYERTKLLGTTEKFAELYGFPENDPNLIREKFREVIHAEYEDLVKKLEETEANRNNPTT | soluble
7 | MQITLARIDDRLIHGQVTTVWSKVANAQRIIICNDDVFNDEVRRTLLRQAAPPGMKVNVVSLEKAVAVYHNPQYQDETVFYLFTNPHDVLTMVRQGVQIATLNIGGMAWRPGKKQLTKAVSLDPQDIQAFRELDKLGVKLDLRVVASDPSVNILDKINETAFCE | soluble
8 | MQIVKKEKFILKEYTFENGRTIPVQMGYETYGTLNRERSNVILICHYFSATSHAAGKYTAHDEESGWWDGLIGPGKAIDTNQYFVICTDNLCNVQVKNPHVITTGPKSINPKTGDEYAMDFPVFTFLDVARMQCELIKDMGIARLHAVMGPSAGGMIAQQWAVHYPHMVERMIGVITNPQNPIITSVNVAQNAIEAIRLDPSWKGGKYGEEQPMKGLQLANRMMFMNAFDEHFYETTYPRNSIEVEPYEKVSSLTSFEKEINKLTYRSIELVDANSWMYTAKAVLLHDIAHGFSSLEEALSNVEANVLMIPCKQDLLQPSRYNYKMVDLLQKQGKYAEVYEIESINGHMAGVFDIHLFEKKVYEFLNRKVSSFV | not soluble
9 | MQIVQIEQAPKDYISDIKIIPSKSLLLITSWDGSLTVYKFDIQAKNVDLLQSLRYKHPLLCCNFIDNTDLQIYVGTVQGEILKVDLIGSPSFQALTNNEANLGICRICKYGDDKLIAASWDGLIEVIDPRNYGDGVIAVKNLNSNNTKVKNKIFTMDTNSSRLIVGMNNSQVQWFRLPLCEDDNGTIEESGLKYQIRDVALLPKEQEGYACSSIDGRVAVEFFDDQGDDYNSSKRFAFRCHRLNLKDTNLAYPVNSIEFSPRHKFLYTAGSDGIISCWNLQTRKKIKNFAKFNEDSVVKIACSDNILCLATSDDTFKTNAAIDQTIELNASSIYIIFDYENLEHHHHHH | soluble
10 | MQKINDAGELAKHSVVVTTFDTIKTLMNFQTLQKISFERIIIYDAYPIDNTDTQRYKALRQLDATYRWVLTGNLLQQNLANFLKLGEYGDDQLWDTQICPILEGKQCDEKTELSKKIENLLKSVELKFPLENYREMEVGADDSQ | not soluble
11 | MQKPVMNPKQRIFIRGLGLPSSYVEAQKKRDEENAKN | not soluble
12 | MQLNMMLENRDYTLVIDHSASMAKPDGNSENSKWQAIQESTFALARKCEEFDSDGITVYLFSKTFQRYDYVNSAKVKQLFAENSPSETTNLVGVLQDAINSYFQRKSLGKTKPAGEVILVITDGAPVDSQAVCEVIIKATHLVESANELRISIIQVGSDSHATKFLKALDDHLQSVGAKFDICDTITLDELEITNLSDVLMKAITDLEHHHHHH | soluble
13 | MQLRYAFRVYPDAGQRLALARAFGCARVVFNDVVRAREDARKAGRPFQTAAGLSRKLITEAKRTAERSWLGEVSAVVLQQSLRDAETAYRNFFASLKGTRKGPRVGPPRYKSRKDARQSIRFTANARWSITDSGRLNLPKIGAVKVKWSRTLPTIPTSVTVIKDAAGRYFASFVVDTDPAADRVRMPDADRTVGIDLGLTHFAVLSDGTKIGSPRFLRRAEKKLKKAQQELSRKQMGSKNRDRARLKVARAHAKVADARREFHHQLSTRLISENQGIAVEDLSVAGLARTRLAKSVHDAGWSSFVGMLKYKAERYGRTLVVIGRFEPTSQTCSTCGVKDGPKPLQVREWTCTACGTVHDRDHNAAINVKQAAGLAASACGAPVRPGAIPAQREETGSHGLPTEPRAALEHHHHHH | not soluble
14 | MQLSWKDIPTVAPANDLLDIVLNRTQRKTPTVIRPGFKITRIRAFYMRKVKYTGEGFVEKFEDILKGFPNINDVHPFHRDLMDTLYEKNHYKISLAAISRAKSLVEQVARDYVRLLKFGQSLFQCKQLKRAALGRMATIVKKLRDPLAYLEQVRQHIGRLPSIDPNTRTLLICGYPNVGKSSFLRCITKSDVDVQPYAFTTKSLYVGHFDYKYLRFQAIDTPGILDRPTEEMNNIEMQSIYAIAHLRSCVLYFMDLSEQCGFTIEAQVKLFHSIKPLFANKSVMVVINKTDIIRPEDLDEERAQLLESVKEVPGVEIMTSSCQLEENVMEVRNKACEKLLASRIENKLKSQSRINNVLNKIHVAQPQARDDVKRTPFIPESVKNLKKYDPEDPNRRKLARDIEAENGGAGVFNVNLKDKYLLEDDEWKNDIMPEILDGKNVYDFLDPEIAAKLQALEEEEEKLENEGFYNSDDEEEIYDGFEASEVDDIKEKAAWIRNRQKTMIAEARNRKSLKNKAIMPRSKLTKSFGKMEEHMSTLGHDMSALQDKQNRAARKNRYVERGSDVVFGDQDALTASTENGVKLRQTDRLLDGVADGSMRSKADRMAKMERRERNRHAKQGESDRHNAVSLSKHLFSGKRGVGKTDFR | not soluble
15 | MQLVVARIGRAHGIKGEVTVEVRTDEPELRLGPGAVLATDPASVGPLTIETGRVHSGRLLLRFEGVRDRNGAEALRNTLLIAEVDPDEVPEDPDEYYDHQLMDLDVVTKDGTEVGRITEISHLPSQDLFVVERSDGSEVYIPFVEEIVVEIDLEEQRAVIDPPPGLIDDRAEVDSSDTEAATEADALEHHHHHH | soluble
16 | MQMYLADCIFPDIEGQLAAYKSFCELWDSGEMAKLDNFDGFQMLFRVHAPGAGRVTILFKAESDAQIFEAFAPWRAQFGIEMDFTPVIGCQDVVDYHKKLFAKMS | not soluble
17 | MQNAGSLVVLGSINADHILNLQSFPTPGETVTGNHYQVAFGGKGANQAVAAGRSGANIAFIACTGDDSIGESVRQQLATDNIDITPVSVIKGESTGVALIFVNGEGENVIGIHAGANAALSPALVEAQRERIANASALLMQLESPLESVMAAAKIAHQNKTIVALNPAPARELPDELLALVDIITPNETEAEKLTGIRVENDEDAAKAAQVLHEKGIRTVLITLGSRGVWASVNGEGQRVPGFRVQAVDTIAAGDTFNGALITALLEEKPLPEAIRFAHAAAAIAVTRKGAQPSVPWREEIDAFLDRQR | soluble
18 | MQNISTHKYMEKLDLTWSDDSIRFINTATPRARQTFFYVQEAGDFCTSSPYFTERENLNSFLIIYTLRGKGLLKYHGSQYSLHPGTTAYINCMEHHHYECLQKQNWEFLWLHFNGPSALGYYEEFMRSNFHILDSLDPFFMESTMRRILSITQRKDIHSEILSSCLIINILTRILIENDTENLSLGFMPTY | not soluble
19 | MQNKIVKIGNIDVANDKPFVLFGGMNVLESRDMAMQVCEAYVKVTEKLGVPYVFKASFDKANRSSIHSYRGPGMEEGLKIFQELKDTFGVKIITDVHEIYQCQPVADVVDIIQLPAFLARQTDLVEAMAKTGAVINVKKPQFLSPSQMGNIVEKIEECGNDKIILCDRGTNFGYDNLIVDMLGFSVMKKASKGSPVIFDVTHSLQCRDPFGAASSGRRAQVTELARSGLAVGIAGLFLEAHPNPNQAKCDGPSALPLSALEGFVSQMKAIDDLVKSFPELDTSIGSHHHHHH | soluble
20 | MQNNSYGYAVSVRVGGKEHRHWERYDIDSDFLIPADSFDFVIGRLGPEAAIPDLSGESCEVVIDGQIVMTGIIGSQRHGKSKGSRELSLSGRDLAGFLVDCSAPQLNVKGMTVLDAAKKLAAPWPQIKAVVLKAENNPALGKIDIEPGETVWQALTHIANSVGLHPWLEPDGTLVVGGADYSSPPVATLCWSRTDSRCNIERMDIEWDTDNRFSEVTFLAQSHGRSGDSAKHDLKWVYKDPTMTLHRPKTVVVSDADNLAALQKQAKKQLADWRLEGFTLTITVGGHKTRDGVLWQPGLRVHVIDDEHGIDAVFFLMGRRFMLSRMDGTQTELRLKEDGIWTPDAYPKKAEAARKRKGKRKGVSHKGKKGGKKQAETAVFE | soluble
21 | MQNRQVANATKVAVAGASGYAGGEILRLLLGHPAYADGRLRIGALTAATSAGSTLGEHHPHLTPLAHRVVEPTEAAVLGGHDAVFLALPHGHSAVLAQQLSPETLIIDCGADFRLTDAAVWERFYGSSHAGSWPYGLPELPGARDQLRGTRRIAVPGCYPTAALLALFPALAADLIEPAVTVVAVSGTSGAGRAATTDLLGAEVIGSARAYNIAGVHRHTPEIAQGLRAVTDRDVSVSFTPVLIPASRGILATCTARTRSPLSQLRAAYEKAYHAEPFIYLMPEGQLPRTGAVIGSNAAHIAVAVDEDAQTFVAIAAIDNLVKGTAGAAVQSMNLALGWPETDGLSVVGVAP | soluble
22 | MQNSTTEFLKPRQIDVNTFSATRAKVSMQPFERGFGHTLGNALRRILLSSMNGFAPTEVAIAGVLHEYSTVDGIQEDVVDILLNIKGIVFKLHGRSQVQLVLKKSGSGVVSAGDIELPHDVEILNPGHVICHLADNGQIEMEIKVEQGRGYQSVSGRQVVRDENRQIGAIQLDASFSPISRVSFEVEPARVEQRTDLDKLVLDIETDGSIDPEEAVRSAARILIDQMSIFADLQGTPVEEVEEKAPPIDPVLLRPVDDLELTVRSANCLKAEDIYYIGDLIQRTETELLKTPNLGRKSLNEIKEVLASKGLTLGSKLEAWPPVGLEKP | soluble
23 | MQPAVYILASQRNGTLYIGVTSDLVQRIYQHREHLIEGFTSRYNVTMLVWYELHPTMESAITREKQLKKWNRAWKLQLIEENNVSWQDLWFDII | not soluble
